# According to US20110158992A1 (SCHERING, published 2011):
# T1: biotinylated huIL-23R-IgG (human, UniProt Q5VWK5 24-353, biotinylated)
# T1 construct: not shown: human IgG1 Fc
# T1 sequence: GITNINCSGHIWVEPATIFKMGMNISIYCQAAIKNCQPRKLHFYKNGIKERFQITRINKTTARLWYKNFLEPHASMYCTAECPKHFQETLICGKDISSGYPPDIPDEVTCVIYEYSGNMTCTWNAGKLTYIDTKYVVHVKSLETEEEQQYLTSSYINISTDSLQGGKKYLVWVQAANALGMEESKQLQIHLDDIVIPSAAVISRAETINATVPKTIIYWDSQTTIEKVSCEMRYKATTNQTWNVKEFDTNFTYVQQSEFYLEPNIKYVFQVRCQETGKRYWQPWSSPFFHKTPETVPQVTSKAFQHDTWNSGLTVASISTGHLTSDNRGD
# Molecular target: T1, biotinylated huIL-23R-IgG
# Assay: ECL binding assay, periplasmic Fab extracts, biotinylated huIL-23R-IgG; AUC vs parental 8B10 Fab
# Excerpt: The N31T change was introduced as a result of affinity maturation experiments, as follows. An E. coli expression vector for expression into the periplasmic space was constructed encoding a chimeric Fab fragment of rat antibody 8B10 comprising rat variable domains, a human constant light chain domain (CL) and a human constant heavy chain domain CH1. Mutations were introduced using a QuikChange® site directed mutagenesis kit (Stratagene Inc., LaJolla, Calif., USA). Primers were designed to replace selected positions with either alanine, or by all 20 amino acids, using the NNK codon approach (N includes an equimolar mix of A/G/C/T and K includes only G/T). To reduce background, alanine mutants at each position were used as the template for the randomization step. Unpurified periplasmic extracts were then tested for human IL-23R binding activity using an electrochemiluminescence assay with biotinylated huIL-23R-IgG and goat anti-huFab-Ori-Tag for detection. The area under the curve was used to compare the binding activity of sequence variants to the original parental 8B10 Fab. Data were fitted using GraphPad Prism® 3.0 software (Graphpad Software inc., San Diego, Calif. USA).
row,Binding (% of w.t.),Binder
1,84.2 % of w.t.,"chimeric 8B10 Fab, VH H102A (Fab, V domains shown, Rat V domains with human CH1 and CL; E. coli periplasmic extract) VH: EVKLVESGGGLEQPKGSLKLSCTVSGFDFNSYGMSWVRQAPGKGLDLVADINSKSYNYATYYADSVKDRFTISRDDSQSMVYLEMDNLKTEDTALYYCTVHASDYFEYWGQGVMVTVSS VL: DIQMTQSPASLSASLGETVSIECLASEDIYNNLAWYQQKPGKSPQLLIYHASSLQDGVPSRFSGSGSGTQYSLKINSLESEDAATYFCLQDSEYPPTFGGGTKLELKR"
2,65.7 % of w.t.,"chimeric 8B10 Fab, VH S103A (Fab, V domains shown, Rat V domains with human CH1 and CL; E. coli periplasmic extract) VH: EVKLVESGGGLEQPKGSLKLSCTVSGFDFNSYGMSWVRQAPGKGLDLVADINSKSYNYATYYADSVKDRFTISRDDSQSMVYLEMDNLKTEDTALYYCTVHHADYFEYWGQGVMVTVSS VL: DIQMTQSPASLSASLGETVSIECLASEDIYNNLAWYQQKPGKSPQLLIYHASSLQDGVPSRFSGSGSGTQYSLKINSLESEDAATYFCLQDSEYPPTFGGGTKLELKR"
3,105 % of w.t.,"chimeric 8B10 Fab, VH S55A (Fab, V domains shown, Rat V domains with human CH1 and CL; E. coli periplasmic extract) VH: EVKLVESGGGLEQPKGSLKLSCTVSGFDFNSYGMSWVRQAPGKGLDLVADINSKAYNYATYYADSVKDRFTISRDDSQSMVYLEMDNLKTEDTALYYCTVHHSDYFEYWGQGVMVTVSS VL: DIQMTQSPASLSASLGETVSIECLASEDIYNNLAWYQQKPGKSPQLLIYHASSLQDGVPSRFSGSGSGTQYSLKINSLESEDAATYFCLQDSEYPPTFGGGTKLELKR"
4,61 % of w.t.,"chimeric 8B10 Fab, VH E107A (Fab, V domains shown, Rat V domains with human CH1 and CL; E. coli periplasmic extract) VH: EVKLVESGGGLEQPKGSLKLSCTVSGFDFNSYGMSWVRQAPGKGLDLVADINSKSYNYATYYADSVKDRFTISRDDSQSMVYLEMDNLKTEDTALYYCTVHHSDYFAYWGQGVMVTVSS VL: DIQMTQSPASLSASLGETVSIECLASEDIYNNLAWYQQKPGKSPQLLIYHASSLQDGVPSRFSGSGSGTQYSLKINSLESEDAATYFCLQDSEYPPTFGGGTKLELKR"
5,100 % of w.t.,"chimeric 8B10 Fab, VH S31A (Fab, V domains shown, Rat V domains with human CH1 and CL; E. coli periplasmic extract) VH: EVKLVESGGGLEQPKGSLKLSCTVSGFDFNAYGMSWVRQAPGKGLDLVADINSKSYNYATYYADSVKDRFTISRDDSQSMVYLEMDNLKTEDTALYYCTVHHSDYFEYWGQGVMVTVSS VL: DIQMTQSPASLSASLGETVSIECLASEDIYNNLAWYQQKPGKSPQLLIYHASSLQDGVPSRFSGSGSGTQYSLKINSLESEDAATYFCLQDSEYPPTFGGGTKLELKR"
6,1.5 % of w.t.,"chimeric 8B10 Fab, VH D104A (Fab, V domains shown, Rat V domains with human CH1 and CL; E. coli periplasmic extract) VH: EVKLVESGGGLEQPKGSLKLSCTVSGFDFNSYGMSWVRQAPGKGLDLVADINSKSYNYATYYADSVKDRFTISRDDSQSMVYLEMDNLKTEDTALYYCTVHHSAYFEYWGQGVMVTVSS VL: DIQMTQSPASLSASLGETVSIECLASEDIYNNLAWYQQKPGKSPQLLIYHASSLQDGVPSRFSGSGSGTQYSLKINSLESEDAATYFCLQDSEYPPTFGGGTKLELKR"
7,123 % of w.t.,"chimeric 8B10 Fab, VH I51A (Fab, V domains shown, Rat V domains with human CH1 and CL; E. coli periplasmic extract) VH: EVKLVESGGGLEQPKGSLKLSCTVSGFDFNSYGMSWVRQAPGKGLDLVADANSKSYNYATYYADSVKDRFTISRDDSQSMVYLEMDNLKTEDTALYYCTVHHSDYFEYWGQGVMVTVSS VL: DIQMTQSPASLSASLGETVSIECLASEDIYNNLAWYQQKPGKSPQLLIYHASSLQDGVPSRFSGSGSGTQYSLKINSLESEDAATYFCLQDSEYPPTFGGGTKLELKR"
8,67.3 % of w.t.,"chimeric 8B10 Fab, VH D50A (Fab, V domains shown, Rat V domains with human CH1 and CL; E. coli periplasmic extract) VH: EVKLVESGGGLEQPKGSLKLSCTVSGFDFNSYGMSWVRQAPGKGLDLVAAINSKSYNYATYYADSVKDRFTISRDDSQSMVYLEMDNLKTEDTALYYCTVHHSDYFEYWGQGVMVTVSS VL: DIQMTQSPASLSASLGETVSIECLASEDIYNNLAWYQQKPGKSPQLLIYHASSLQDGVPSRFSGSGSGTQYSLKINSLESEDAATYFCLQDSEYPPTFGGGTKLELKR"
9,79 % of w.t.,"chimeric 8B10 Fab, VH A49G (Fab, V domains shown, Rat V domains with human CH1 and CL; E. coli periplasmic extract) VH: EVKLVESGGGLEQPKGSLKLSCTVSGFDFNSYGMSWVRQAPGKGLDLVGDINSKSYNYATYYADSVKDRFTISRDDSQSMVYLEMDNLKTEDTALYYCTVHHSDYFEYWGQGVMVTVSS VL: DIQMTQSPASLSASLGETVSIECLASEDIYNNLAWYQQKPGKSPQLLIYHASSLQDGVPSRFSGSGSGTQYSLKINSLESEDAATYFCLQDSEYPPTFGGGTKLELKR"
10,52.6 % of w.t.,"chimeric 8B10 Fab, VH R74A (Fab, V domains shown, Rat V domains with human CH1 and CL; E. coli periplasmic extract) VH: EVKLVESGGGLEQPKGSLKLSCTVSGFDFNSYGMSWVRQAPGKGLDLVADINSKSYNYATYYADSVKDRFTISADDSQSMVYLEMDNLKTEDTALYYCTVHHSDYFEYWGQGVMVTVSS VL: DIQMTQSPASLSASLGETVSIECLASEDIYNNLAWYQQKPGKSPQLLIYHASSLQDGVPSRFSGSGSGTQYSLKINSLESEDAATYFCLQDSEYPPTFGGGTKLELKR"
11,29.1 % of w.t.,"chimeric 8B10 Fab, VH H101A (Fab, V domains shown, Rat V domains with human CH1 and CL; E. coli periplasmic extract) VH: EVKLVESGGGLEQPKGSLKLSCTVSGFDFNSYGMSWVRQAPGKGLDLVADINSKSYNYATYYADSVKDRFTISRDDSQSMVYLEMDNLKTEDTALYYCTVAHSDYFEYWGQGVMVTVSS VL: DIQMTQSPASLSASLGETVSIECLASEDIYNNLAWYQQKPGKSPQLLIYHASSLQDGVPSRFSGSGSGTQYSLKINSLESEDAATYFCLQDSEYPPTFGGGTKLELKR"
12,27.4 % of w.t.,"chimeric 8B10 Fab, VH G33A (Fab, V domains shown, Rat V domains with human CH1 and CL; E. coli periplasmic extract) VH: EVKLVESGGGLEQPKGSLKLSCTVSGFDFNSYAMSWVRQAPGKGLDLVADINSKSYNYATYYADSVKDRFTISRDDSQSMVYLEMDNLKTEDTALYYCTVHHSDYFEYWGQGVMVTVSS VL: DIQMTQSPASLSASLGETVSIECLASEDIYNNLAWYQQKPGKSPQLLIYHASSLQDGVPSRFSGSGSGTQYSLKINSLESEDAATYFCLQDSEYPPTFGGGTKLELKR"
13,71.1 % of w.t.,"chimeric 8B10 Fab, VH K54A (Fab, V domains shown, Rat V domains with human CH1 and CL; E. coli periplasmic extract) VH: EVKLVESGGGLEQPKGSLKLSCTVSGFDFNSYGMSWVRQAPGKGLDLVADINSASYNYATYYADSVKDRFTISRDDSQSMVYLEMDNLKTEDTALYYCTVHHSDYFEYWGQGVMVTVSS VL: DIQMTQSPASLSASLGETVSIECLASEDIYNNLAWYQQKPGKSPQLLIYHASSLQDGVPSRFSGSGSGTQYSLKINSLESEDAATYFCLQDSEYPPTFGGGTKLELKR"
14,88.7 % of w.t.,"chimeric 8B10 Fab, VH S53A (Fab, V domains shown, Rat V domains with human CH1 and CL; E. coli periplasmic extract; also called S53A (heavy chain variable domain)) VH: EVKLVESGGGLEQPKGSLKLSCTVSGFDFNSYGMSWVRQAPGKGLDLVADINAKSYNYATYYADSVKDRFTISRDDSQSMVYLEMDNLKTEDTALYYCTVHHSDYFEYWGQGVMVTVSS VL: DIQMTQSPASLSASLGETVSIECLASEDIYNNLAWYQQKPGKSPQLLIYHASSLQDGVPSRFSGSGSGTQYSLKINSLESEDAATYFCLQDSEYPPTFGGGTKLELKR"
15,38.7 % of w.t.,"chimeric 8B10 Fab, VH N52A (Fab, V domains shown, Rat V domains with human CH1 and CL; E. coli periplasmic extract) VH: EVKLVESGGGLEQPKGSLKLSCTVSGFDFNSYGMSWVRQAPGKGLDLVADIASKSYNYATYYADSVKDRFTISRDDSQSMVYLEMDNLKTEDTALYYCTVHHSDYFEYWGQGVMVTVSS VL: DIQMTQSPASLSASLGETVSIECLASEDIYNNLAWYQQKPGKSPQLLIYHASSLQDGVPSRFSGSGSGTQYSLKINSLESEDAATYFCLQDSEYPPTFGGGTKLELKR"
16,71.1 % of w.t.,"chimeric 8B10 Fab, VH F106A (Fab, V domains shown, Rat V domains with human CH1 and CL; E. coli periplasmic extract) VH: EVKLVESGGGLEQPKGSLKLSCTVSGFDFNSYGMSWVRQAPGKGLDLVADINSKSYNYATYYADSVKDRFTISRDDSQSMVYLEMDNLKTEDTALYYCTVHHSDYAEYWGQGVMVTVSS VL: DIQMTQSPASLSASLGETVSIECLASEDIYNNLAWYQQKPGKSPQLLIYHASSLQDGVPSRFSGSGSGTQYSLKINSLESEDAATYFCLQDSEYPPTFGGGTKLELKR"
